What was measured:
[1] = target: T1, His-tagged mouse BCMA (Acro Biosystems, BCA-M52H3) (mouse, UniProt O88472 1-49); assay: BLI, His-tagged mouse BCMA on HIS1K tip
T1 construct: Bought protein; not shown: His tag
T1 chain: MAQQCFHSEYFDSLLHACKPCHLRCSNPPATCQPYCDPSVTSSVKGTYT

[2] = target: T2, human BCMA expressed on cells (human, UniProt Q02223 1-184); assay: flow cytometry, fixed RPMI 8226 cells (BCMA+, TACI+: the cells carry both targets)
T2 construct: the cell line is named under assay; also called wildtype human BCMA
T2 sequence: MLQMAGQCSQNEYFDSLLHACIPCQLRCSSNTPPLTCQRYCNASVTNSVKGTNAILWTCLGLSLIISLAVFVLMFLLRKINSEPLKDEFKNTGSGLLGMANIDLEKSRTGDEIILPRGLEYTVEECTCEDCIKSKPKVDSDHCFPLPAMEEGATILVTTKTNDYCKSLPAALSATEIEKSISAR

[3] = target: T3, cynomolgous macaque BCMA expressed on CHOK1 cells; assay: flow cytometry, CHOK1 cells transiently expressing cynomolgus BCMA
T3 construct: also called cyno BCMA on cells

[4] = target: T4, Cyno TACI-His (Sino Biological, 90976-C08H) (cynomolgus macaque, UniProt G7PTR7 1-165); assay: ELISA, coated Cyno TACI-His
T4 construct: Bought protein; also called cynomolgous macaque TACI; CyTACI
T4 sequence: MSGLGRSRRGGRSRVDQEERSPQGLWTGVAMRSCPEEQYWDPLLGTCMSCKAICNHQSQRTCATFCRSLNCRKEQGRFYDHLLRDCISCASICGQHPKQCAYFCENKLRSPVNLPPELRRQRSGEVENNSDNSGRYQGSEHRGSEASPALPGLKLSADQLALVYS

BCMA Mut = target: T5, BCMA Mut (human, UniProt Q02223 1-184); assay: flow cytometry on HEK293T cells expressing BCMA Mut
T5 construct: Expressed on HEK293T cells; also called human BCMA comprising the substitutions Y13A, D15A, L17G and L18G
T5 chain: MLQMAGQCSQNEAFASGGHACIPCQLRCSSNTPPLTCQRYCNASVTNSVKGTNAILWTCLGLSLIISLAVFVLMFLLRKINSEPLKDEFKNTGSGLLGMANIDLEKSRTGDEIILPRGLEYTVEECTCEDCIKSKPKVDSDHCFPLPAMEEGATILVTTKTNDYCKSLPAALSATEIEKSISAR

B1: J6M0 (antibody, V domains shown)
VH: QVQLVQSGAEVKKPGSSVKVSCKASGGTFSNYWMHWVRQAPGQGLEWMGATYRGHSDTYYNQKFKGRVTITADKSTSTAYMELSSLRSEDTAVYYCARGAIYDGYDVLDNWGQGTLVTVSS
VL: DIQMTQSPSSLSASVGDRVTITCSASQDISNYLNWYQQKPGKAPKLLIYYTSNLHSGVPSRFSGSGSGTDFTLTISSLQPEDFATYYCQQYRKLPWTFGQGTKLEIK
notes: also called J6M0-hIgG1; anti-BCMA
Mouse BCMA response [1]: 0.0423
EC50 [2]: ~9.61 nM
binding result [3]: binds
binding result [4]: no binding (tested: log M about -7.7 (3 ug/ml per paragraph 742))
binding result (BCMA Mut): binds

From patent publication US20230374147A1 (HUMMINGBIRD BIOSCIENCE PTE, published 2023)
